In patent publication US20250043302A1, “MUTATED HYDROXYPHENYLPYRUVATE DIOXYGENASE POLYPEPTIDE, AND CODING GENE AND USE THEREOF” (BEIJING DABEINONG BIOTECHNOLOGY CO., LTD., priority 2021, published 2025):

How the values were obtained:
Format in all cases: in vivo
[1] = system: Arabidopsis thaliana T1 plants; assay: Mesotrione tolerance of transgenic Arabidopsis thaliana T1 plants (spray, bleached leaf area grade, damage score); set-up: Scores: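 damage score 0-100 computed as Σ(N×S)/(T×M)×100 over grades 0-3 with higher meaning more damage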; details: Table 9; for Classification and statistics of the grade of pesticide damage Grade 0: number of plants at grade 0; for Classification and statistics of the grade of pesticide damage Grade 1: number of plants at grade 1; for Classification and statistics of the grade of pesticide damage Grade 2: number of plants at grade 2; for Classification and statistics of the grade of pesticide damage Grade 3: number of plants at grade 3; for Scores: pesticide damage score
Procedure, shortened: (§1)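 Read-out: per-plant damage grade 0–3 from proportion of bleached leaf area at 7 DAT (1 <50%, 2 >50%, 3 100%). Plants were T1 transformants, glufosinate-selected, plus wild-type CK, sprayed 18 days post-sowing. Rates: topramezone 25–200, isoxaflutole 35–280, mesotrione 52.5–420 g ai/ha.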

[2] = system: Arabidopsis thaliana T1 plants; assay: Isoxaflutole tolerance of transgenic Arabidopsis thaliana T1 plants (spray, bleached leaf area grade, damage score); details: Arabidopsis thaliana T1 plants; for Grade 0 (classification and statistics of the grade of pesticide damage; number of plants) / Grade 1 (classification and statistics of the grade of pesticide damage; number of plants) / Grade 2 (classification and statistics of the grade of pesticide damage; number of plants) / Grade 3 (classification and statistics of the grade of pesticide damage; number of plants): 16 plants;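 for Scores: Weighted damage index from 0 to 100 where higher means more damage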
Procedure, shortened: as §1

[3] = system: Arabidopsis thaliana T1 plants; assay: Topramezone tolerance of transgenic Arabidopsis thaliana T1 plants (spray, bleached leaf area grade, damage score); details: for Resistance evaluation / Scores / Grade 0 (classification and statistics of the grade of pesticide damage; number of plants) / Grade 1 (classification and statistics of the grade of pesticide damage; number of plants) / Grade 2 (classification and statistics of the grade of pesticide damage; number of plants) / Grade 3 (classification and statistics of the grade of pesticide damage; number of plants): Arabidopsis thaliana T1 plants; for Grade 0 (classification and statistics of the grade of pesticide damage; number of plants) / Grade 1 (classification and statistics of the grade of pesticide damage; number of plants) / Grade 2 (classification and statistics of the grade of pesticide damage; number of plants) / Grade 3 (classification and statistics of the grade of pesticide damage; number of plants): 16 plants
Procedure, shortened: as §1

[4] = isoxaflutole 140 g ai/ha (2x field concentration)
[5] = isoxaflutole 280 g ai/ha (4x field concentration)
[6] = topramezone 100 g ai/ha (4x field concentration)
[7] = topramezone 200 g ai/ha (8x field concentration)

B1: AsHPPDm-F372G-02: nucleotide sequence encoding Avena sativa HPPD with F372G; vector DBN11774 (nucleic acid)
DNA: ATGCCACCTACTCCAGCTACAGCTACTGGTGCTGCTGCTGCTGCCGTTACTCCTGAGCACGCTGCCAGGTCATTCCCCAGGGTGGTTCGCGTGAACCCCAGATCTGATAGGTTCCCAGTTCTGAGCTTCCACCATGTTGAGCTGTGGTGCGCTGATGCTGCTTCTGCTGCTGGCAGGTTCTCTTTCGCTCTTGGTGCTCCACTCGCTGCTAGATCTGATCTGTCTACAGGAAATAGCGCTCATGCCTCACTCCTGCTTCGCTCAGGTGCTTTGGCCTTCCTCTTCACCGCTCCATATGCTCCCCCACCTCAGGAGGCTGCTACTGCTGCTGCTACAGCCTCCATTCCAAGCTTCTCAGCTGATGCCGCTAGAACCTTCGCTGCTGCTCATGGACTTGCCGTGAGGTCTGTTGGTGTTCGCGTGGCTGATGCTGCTGAGGCTTTCAGAGTTTCCGTTGCCGGCGGAGCTAGGCCAGCTTTCGCTCCTGCTGATTTGGGACATGGTTTCGGCCTGGCTGAGGTTGAGCTTTACGGTGACGTGGTTCTCCGCTTCGTGTCTTACCCAGATGAGACTGACCTGCCTTTCCTTCCCGGCTTCGAGAGAGTTTCCTCTCCTGGTGCCGTGGATTACGGCCTGACAAGGTTCGACCACGTGGTTGGAAACGTTCCCGAGATGGCTCCAGTGATCGATTACATGAAGGGCTTCCTTGGATTCCATGAGTTCGCCGAGTTCACTGCTGAGGACGTGGGAACCACTGAGTCCGGTTTGAACTCTGTGGTTCTCGCCAACAATTCTGAGGCTGTTTTGCTCCCTCTGAATGAGCCTGTGCATGGAACCAAGAGGAGAAGCCAGATTCAAACTTACCTGGAGTACCACGGTGGCCCTGGAGTTCAGCATATCGCCCTTGCTTCTAATGATGTGTTGCGCACACTCAGAGAGATGCGCGCCAGAACCCCCATGGGAGGTTTCGAGTTCATGGCCCCACCACAGGCTAAGTACTACGAGGGCGTTAGAAGGATTGCTGGAGACGTGTTGAGCGAGGAGCAGATCAAGGAGTGCCAAGAGCTGGGTGTTCTTGTGGATAGGGATGACCAGGGCGTTCTGCTTCAAATTGGTACTAAGCCAGTGGGCGACCGCCCTACATTCTTCCTTGAGATGATTCAAAGAATCGGCTGCATGGAGAAGGATGAGGTTGGACAGGAGTACCAAAAGGGCGGATGCGGTGGCTTCGGAAAGGGTAACTTCAGCGAGTTGTTCAAGTCAATCGAGGACTACGAGAAGAGCCTCGAGGTGAAGCAGTCAGTGGTTGCCCAAAAGTCCTGA
modifications: AsHPPDm-F372G-02 Nucleotide Sequence
notes: vector DBN11774
B1 was tested, and the Resistance evaluation ([1]; mesotrione 210 g ai/ha (2×)) was “Moderately”, the “Classification and statistics of the grade of pesticide damage Grade 0” value ([1]; mesotrione 210 g ai/ha (2×)) was 5 and the “Classification and statistics of the grade of pesticide damage Grade 1” value ([1]; mesotrione 210 g ai/ha (2×)) was 8. For the same molecule, the “Classification and statistics of the grade of pesticide damage Grade 2” value ([1]; mesotrione 210 g ai/ha (2×)) was 2, the “Classification and statistics of the grade of pesticide damage Grade 3” value ([1]; mesotrione 210 g ai/ha (2×)) was 1 and the Scores ([1]; mesotrione 210 g ai/ha (2×)) was 31. The Resistance evaluation ([1]; mesotrione 420 g ai/ha (4×)) was “Poorly resistant”, the “Classification and statistics of the grade of pesticide damage Grade 0” value ([1]; mesotrione 420 g ai/ha (4×)) was 0 and the “Classification and statistics of the grade of pesticide damage Grade 1” value ([1]; mesotrione 420 g ai/ha (4×)) was 8. The “Classification and statistics of the grade of pesticide damage Grade 2” value ([1]; mesotrione 420 g ai/ha (4×)) was 8, the “Classification and statistics of the grade of pesticide damage Grade 3” value ([1]; mesotrione 420 g ai/ha (4×)) was 0 and the Scores ([1]; mesotrione 420 g ai/ha (4×)) was 50. For the same molecule, the Resistance evaluation [2, 4] was “Moderately”, the Scores [2, 4] was 29 and the “Grade 0 (classification and statistics of the grade of pesticide damage; number of plants)” value [2, 4] was 6. For the same molecule, the “Grade 1 (classification and statistics of the grade of pesticide damage; number of plants)” value [2, 4] was 7, the “Grade 2 (classification and statistics of the grade of pesticide damage; number of plants)” value [2, 4] was 2 and the “Grade 3 (classification and statistics of the grade of pesticide damage; number of plants)” value [2, 4] was 1. For the same molecule, the Resistance evaluation [2, 5] was “Poorly resistant”, the Scores [2, 5] was 67 and the “Grade 0 (classification and statistics of the grade of pesticide damage; number of plants)” value [2, 5] was 0. The “Grade 1 (classification and statistics of the grade of pesticide damage; number of plants)” value [2, 5] was 0, the “Grade 2 (classification and statistics of the grade of pesticide damage; number of plants)” value [2, 5] was 16 and the “Grade 3 (classification and statistics of the grade of pesticide damage; number of plants)” value [2, 5] was 0. For the same molecule, the Resistance evaluation [3, 6] was “Highly resistant”, the Scores [3, 6] was 0 and the “Grade 0 (classification and statistics of the grade of pesticide damage; number of plants)” value [3, 6] was 16. The “Grade 1 (classification and statistics of the grade of pesticide damage; number of plants)” value [3, 6] was 0, the “Grade 2 (classification and statistics of the grade of pesticide damage; number of plants)” value [3, 6] was 0 and the “Grade 3 (classification and statistics of the grade of pesticide damage; number of plants)” value [3, 6] was 0. For the same molecule, the Resistance evaluation [3, 7] was “Highly resistant”, the Scores [3, 7] was 0 and the “Grade 0 (classification and statistics of the grade of pesticide damage; number of plants)” value [3, 7] was 16. For the same molecule, the “Grade 1 (classification and statistics of the grade of pesticide damage; number of plants)” value [3, 7] was 0, the “Grade 2 (classification and statistics of the grade of pesticide damage; number of plants)” value [3, 7] was 0 and the “Grade 3 (classification and statistics of the grade of pesticide damage; number of plants)” value [3, 7] was 0. The “tolerance to topramezone (resistance class)” value ([3]; topramezone at four-fold or eight-fold field concentration) was “highly-resistant”.
